± gives the standard error. This sample holds only a part of the variants without activity.
B1: glmS ribozyme (parent)
chain: AUAAAAGCGCCAGAACUACAGAAAUGUAGUUGACGAGGAGGAGGUUUAUCGAAUUUUCGGCGGAUGCCUCCAAA

Assays:
Details in all cases: with glucosamine-6-phosphate
glucosamine-6-phosphate [1] = variants of: B1; assay: self-cleavage kobs at 40 uM GlcN6P; higher = faster cleavage; RNA array
Procedure, shortened: (§1)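 kcat and KM were obtained from weighted Michaelis–Menten fits across concentrations of kobs values. Those came from one- or two-exponential decay fits to per-tile medians normalised to baseline and to non-cleaving reference variants. The variants were barcoded ribozymes transcribed in situ by E. coli RNA polymerase on sequenced MiSeq chips and tracked through a hybridised Cy3 probe at 37 °C, with 40 μM to 10 mM glucosamine-6-phosphate in HEPES/KCl/Mg(OAc)2 buffer flowed in.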

glucosamine-6-phosphate [2] = variants of: B1; assay: self-cleavage kobs at 160 uM GlcN6P; higher = faster cleavage; RNA array
Procedure, shortened: as §1

glucosamine-6-phosphate [3] = variants of: B1; assay: self-cleavage kobs at 2500 uM GlcN6P; higher = faster cleavage; RNA array
Procedure, shortened: as §1

glucosamine-6-phosphate [4] = variants of: B1; assay: self-cleavage kobs at 10000 uM GlcN6P; higher = faster cleavage; RNA array
Procedure, shortened: as §1

glucosamine-6-phosphate [5] = variants of: B1; assay: self-cleavage kobs at 640 uM GlcN6P; higher = faster cleavage; RNA array
Procedure, shortened: as §1

| Variant | self-cleavage kobs at 40 uM GlcN6P (glucosamine-6-phosphate [1]) | self-cleavage kobs at 160 uM GlcN6P (glucosamine-6-phosphate [2]) | self-cleavage kobs at 2500 uM GlcN6P (glucosamine-6-phosphate [3]) | self-cleavage kobs at 10000 uM GlcN6P (glucosamine-6-phosphate [4]) | self-cleavage kobs at 640 uM GlcN6P (glucosamine-6-phosphate [5]) |
| --- | --- | --- | --- | --- | --- |
| C8U C10A C50G | 9.57e-05 ± 2e-05 s⁻¹ | 0.000179 ± 2.8e-05 s⁻¹ | 8.56e-05 ± 2.1e-05 s⁻¹ | 9.18e-05 ± 1.7e-05 s⁻¹ | – |
| C70A | 0.000267 ± 7.7e-05 s⁻¹ | 0.000416 ± 0.00014 s⁻¹ | 0.000583 ± 4.1e-05 s⁻¹ | 0.00384 ± 0.0011 s⁻¹ | 0.00093 ± 0.00021 s⁻¹ |
| C50A G59C | < 1e-05 s⁻¹ | – | < 1e-05 s⁻¹ | < 1e-05 s⁻¹ | < 1e-05 s⁻¹ |
| A12G G35C G60A U65G C68G | 0.000127 ± 3.9e-05 s⁻¹ | – | 0.000384 ± 0.00015 s⁻¹ | 0.000121 ± 4.1e-05 s⁻¹ | – |
| C34G G44U | < 1e-05 s⁻¹ | < 1e-05 s⁻¹ | – | < 1e-05 s⁻¹ | < 1e-05 s⁻¹ |
| C16U G38A | < 1e-05 s⁻¹ | < 1e-05 s⁻¹ | < 1e-05 s⁻¹ | – | < 1e-05 s⁻¹ |
| A6U G7U C10A G29A C34A C67G C68A C71U | 9.49e-05 ± 2.1e-05 s⁻¹ | – | – | 3.01e-05 ± 1.4e-05 s⁻¹ | 6.07e-05 ± 1.4e-05 s⁻¹ |
| G13C G66C | < 1e-05 s⁻¹ | – | – | – | < 1e-05 s⁻¹ |
| A33C G62C | < 1e-05 s⁻¹ | – | < 1e-05 s⁻¹ | < 1e-05 s⁻¹ | < 1e-05 s⁻¹ |
| G9A A15U G63U | < 1e-05 s⁻¹ | – | – | – | – |
| G44A C71G | < 1e-05 s⁻¹ | < 1e-05 s⁻¹ | – | < 1e-05 s⁻¹ | < 1e-05 s⁻¹ |
| A48G U65C | < 1e-05 s⁻¹ | – | – | < 1e-05 s⁻¹ | – |
| A36U A52G C70A | 5.42e-05 ± 1.4e-05 s⁻¹ | – | – | – | 0.000171 ± 6.6e-05 s⁻¹ |
| A42U C58A | < 1e-05 s⁻¹ | < 1e-05 s⁻¹ | – | – | < 1e-05 s⁻¹ |
| G7U G37A | < 1e-05 s⁻¹ | – | – | < 1e-05 s⁻¹ | – |
| G37A C50G C58A C67A C71U | 4.39e-05 ± 1.4e-05 s⁻¹ | – | 6.21e-05 ± 1.7e-05 s⁻¹ | – | – |
| A15U G60U | < 1e-05 s⁻¹ | < 1e-05 s⁻¹ | < 1e-05 s⁻¹ | < 1e-05 s⁻¹ | < 1e-05 s⁻¹ |
| U31G G66A | 0.000146 ± 2.4e-05 s⁻¹ | – | 0.00151 ± 0.00042 s⁻¹ | 0.00839 ± 0.0014 s⁻¹ | 0.0011 ± 0.00039 s⁻¹ |
| C34U C58G U65G C70A | 0.000236 ± 8.2e-05 s⁻¹ | – | – | 0.000376 ± 0.00015 s⁻¹ | 0.000187 ± 7.4e-05 s⁻¹ |
| C19A U56G C68U | 0.000112 ± 3.6e-05 s⁻¹ | – | 0.00041 ± 7.6e-05 s⁻¹ | 0.000435 ± 9.2e-05 s⁻¹ | – |
| A12U G44C U65A | < 1e-05 s⁻¹ | – | – | – | – |

From the supplement of paper PMC7125110
